Columns and labels:
[1] = tested on: ScoMcrA-SBD A168I (Streptomyces coelicolor); assay: EMSA; details: Rp phosphorothioate G(PS)GCC, both strands, EMSA: 20 mM Tris-HCl pH 8.5, 200 mM NaCl, 1 mM DTT, 5% glycerol, 4 C, 30 min, FP: 20 mM Tris pH 8.0, 50 mM NaCl, room temperature, 5 nM …
[2] = tested on: ScoMcrA-SBD H116I (Streptomyces coelicolor); assay: EMSA; details: Rp phosphorothioate G(PS)GCC, both strands, EMSA: 20 mM Tris-HCl pH 8.5, 200 mM NaCl, 1 mM DTT, 5% glycerol, 4 C, 30 min, FP: 20 mM Tris pH 8.0, 50 mM NaCl, room temperature, 5 nM …
[3] = tested on: ScoMcrA-SBD R190A (Streptomyces coelicolor); assay: EMSA; details: Rp phosphorothioate G(PS)GCC, both strands, EMSA: 20 mM Tris-HCl pH 8.5, 200 mM NaCl, 1 mM DTT, 5% glycerol, 4 C, 30 min, FP: 20 mM Tris pH 8.0, 50 mM NaCl, room temperature, 5 nM …
[4] = tested on: ScoMcrA-SBD R191A (Streptomyces coelicolor); assay: EMSA; details: Rp phosphorothioate G(PS)GCC, both strands, EMSA: 20 mM Tris-HCl pH 8.5, 200 mM NaCl, 1 mM DTT, 5% glycerol, 4 C, 30 min, FP: 20 mM Tris pH 8.0, 50 mM NaCl, room temperature, 5 nM …
[5] = tested on: ScoMcrA-SBD S187A (Streptomyces coelicolor); assay: EMSA; details: Rp phosphorothioate G(PS)GCC, both strands, EMSA: 20 mM Tris-HCl pH 8.5, 200 mM NaCl, 1 mM DTT, 5% glycerol, 4 C, 30 min, FP: 20 mM Tris pH 8.0, 50 mM NaCl, room temperature, 5 nM …
[6] = tested on: ScoMcrA-SBD Y164F (Streptomyces coelicolor); assay: EMSA; details: Rp phosphorothioate G(PS)GCC, both strands, EMSA: 20 mM Tris-HCl pH 8.5, 200 mM NaCl, 1 mM DTT, 5% glycerol, 4 C, 30 min, FP: 20 mM Tris pH 8.0, 50 mM NaCl, room temperature, 5 nM …
[7] = tested on: ScoMcrA-SBD Y164I (Streptomyces coelicolor); assay: EMSA; details: Rp phosphorothioate G(PS)GCC, both strands, EMSA: 20 mM Tris-HCl pH 8.5, 200 mM NaCl, 1 mM DTT, 5% glycerol, 4 C, 30 min, FP: 20 mM Tris pH 8.0, 50 mM NaCl, room temperature, 5 nM …
ScoMcrA-SBD [8] = target: T1, ScoMcrA-SBD (Streptomyces coelicolor, UniProt Q9L0M9 91-260); assay: fluorescence polarization; details: phosphorothioate G(PS)GCC, EMSA: 20 mM Tris-HCl pH 8.5, 200 mM NaCl, 1 mM DTT, 5% glycerol, 4 C, 30 min, FP: 20 mM Tris pH 8.0, 50 mM NaCl, room temperature, 5 nM …
T1 sequence: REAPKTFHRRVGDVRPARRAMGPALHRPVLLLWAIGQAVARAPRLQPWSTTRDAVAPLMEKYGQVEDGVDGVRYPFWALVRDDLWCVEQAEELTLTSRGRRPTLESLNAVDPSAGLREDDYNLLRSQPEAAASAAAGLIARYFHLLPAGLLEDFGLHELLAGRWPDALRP

[9] = tested on: ScoMcrA-SBD R117K (Streptomyces coelicolor); assay: fluorescence polarization; details: phosphorothioate G(PS)GCC, EMSA: 20 mM Tris-HCl pH 8.5, 200 mM NaCl, 1 mM DTT, 5% glycerol, 4 C, 30 min, FP: 20 mM Tris pH 8.0, 50 mM NaCl, room temperature, 5 nM …
[10] = target: the molecule itself; assay: crystal structure; full-length ScoMcrA alone, 3.15 Å, space group P212121, six molecules in each asymmetric unit
[11] = target: the molecule itself; assay: crystal structure; ScoMcrA-SBD-SRA (91-442) with 10 bp Rp PT-DNA, 3.30 Å, space group I4122; the two protomers are related by the crystallographic two-fold rotation axis
ScoMcrA-SBD-SRA = target: T2, ScoMcrA-SBD-SRA (Streptomyces coelicolor, UniProt Q9L0M9 91-442); assay: crystal structure (3.30 A); EMSA: 20 mM Tris-HCl pH 8.5, 200 mM NaCl, 1 mM DTT, 5% glycerol, 4 C, 30 min; FP: 20 mM Tris pH 8.0, 50 mM NaCl, 1 mM DTT, 5% glycerol, room temperature, 5 nM FAM-DNA; details: protein: recombinant; tags: MBP tag removed by TEV; chain copies: 2; blunt
T2 sequence: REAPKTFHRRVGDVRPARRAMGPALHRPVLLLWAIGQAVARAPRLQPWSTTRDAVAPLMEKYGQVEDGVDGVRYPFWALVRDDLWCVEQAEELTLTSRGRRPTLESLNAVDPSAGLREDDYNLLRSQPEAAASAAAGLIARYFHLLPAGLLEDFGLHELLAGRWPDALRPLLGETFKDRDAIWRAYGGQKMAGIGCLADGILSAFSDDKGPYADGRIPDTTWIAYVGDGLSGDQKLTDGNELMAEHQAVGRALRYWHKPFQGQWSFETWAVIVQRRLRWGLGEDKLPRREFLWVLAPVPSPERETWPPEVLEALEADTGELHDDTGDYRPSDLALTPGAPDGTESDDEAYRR

ScoMcrA-SBD [12] = target: T1, ScoMcrA-SBD; assay: crystal structure (1.70 A); EMSA: 20 mM Tris-HCl pH 8.5, 200 mM NaCl, 1 mM DTT, 5% glycerol, 4 C, 30 min; FP: 20 mM Tris pH 8.0, 50 mM NaCl, 1 mM DTT, 5% glycerol, room temperature, 5 nM FAM-DNA; details: protein: recombinant; tags: MBP tag removed by TEV; blunt
ScoMcrA FL = target: T3, ScoMcrA FL (Streptomyces coelicolor, UniProt Q9L0M9 1-560); assay: EMSA; EMSA: 20 mM Tris-HCl pH 8.5, 200 mM NaCl, 1 mM DTT, 5% glycerol, 4 C, 30 min; FP: 20 mM Tris pH 8.0, 50 mM NaCl, 1 mM DTT, 5% glycerol, room temperature, 5 nM FAM-DNA; details: protein: recombinant; tags: MBP tag removed by TEV; chain copies: 2; blunt
T3 sequence: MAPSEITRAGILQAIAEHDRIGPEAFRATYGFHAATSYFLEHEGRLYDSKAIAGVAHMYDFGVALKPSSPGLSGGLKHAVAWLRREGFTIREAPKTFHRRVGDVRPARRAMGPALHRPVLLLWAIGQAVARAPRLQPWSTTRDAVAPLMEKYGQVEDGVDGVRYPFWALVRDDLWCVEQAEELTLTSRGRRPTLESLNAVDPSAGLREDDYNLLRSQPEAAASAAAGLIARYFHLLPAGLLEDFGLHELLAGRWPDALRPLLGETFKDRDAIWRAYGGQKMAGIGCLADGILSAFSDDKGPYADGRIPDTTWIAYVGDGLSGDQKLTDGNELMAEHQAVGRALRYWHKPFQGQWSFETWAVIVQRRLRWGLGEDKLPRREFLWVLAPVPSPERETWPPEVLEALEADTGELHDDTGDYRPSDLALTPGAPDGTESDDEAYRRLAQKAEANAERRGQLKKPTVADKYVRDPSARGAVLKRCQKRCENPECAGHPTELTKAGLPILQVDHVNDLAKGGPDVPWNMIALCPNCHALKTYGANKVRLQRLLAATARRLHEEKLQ

ScoMcrA-SBD [13] = target: T1, ScoMcrA-SBD; assay: as above; details: protein: recombinant; tags: MBP tag removed by TEV; blunt

Rp PT-DNA, GGCC core (EMSA)
binding signal (% reduction vs WT) [1]: 51 | binding signal (% reduction vs WT) [2]: 94 | binding signal (% reduction vs WT) [3]: 82 | binding signal (% reduction vs WT) [4]: 72 | binding signal (% reduction vs WT) [5]: 38 | binding signal (% reduction vs WT) [6]: 65 | binding signal (% reduction vs WT) [7]: 89

5-FAM PT-DNA, GGCC core (FP)
Kd (ScoMcrA-SBD [8]): 1320 nM | Kd [9]: 1550 nM

5-FAM hemi-PT-DNA (FP)
Kd (ScoMcrA-SBD [8]; one strand): 1470 nM

B1: full-length Streptomyces coelicolor ScoMcrA (ScoA3McrA), DNA phosphorothioation-dependent Type-IV restriction endonuclease (enzyme, UniProt Q9L0M9 1-560, looked up)
chain: MAPSEITRAGILQAIAEHDRIGPEAFRATYGFHAATSYFLEHEGRLYDSKAIAGVAHMYDFGVALKPSSPGLSGGLKHAVAWLRREGFTIREAPKTFHRRVGDVRPARRAMGPALHRPVLLLWAIGQAVARAPRLQPWSTTRDAVAPLMEKYGQVEDGVDGVRYPFWALVRDDLWCVEQAEELTLTSRGRRPTLESLNAVDPSAGLREDDYNLLRSQPEAAASAAAGLIARYFHLLPAGLLEDFGLHELLAGRWPDALRPLLGETFKDRDAIWRAYGGQKMAGIGCLADGILSAFSDDKGPYADGRIPDTTWIAYVGDGLSGDQKLTDGNELMAEHQAVGRALRYWHKPFQGQWSFETWAVIVQRRLRWGLGEDKLPRREFLWVLAPVPSPERETWPPEVLEALEADTGELHDDTGDYRPSDLALTPGAPDGTESDDEAYRRLAQKAEANAERRGQLKKPTVADKYVRDPSARGAVLKRCQKRCENPECAGHPTELTKAGLPILQVDHVNDLAKGGPDVPWNMIALCPNCHALKTYGANKVRLQRLLAATARRLHEEKLQ
notes: ScoMcrA (ScoA3McrA), Streptomyces coelicolor, full length; head, SBD, SRA and HNH domains; the model reaches residue 560; The structure was phased by SAD with a selenomethionine derivative of the full-length protein; Cloned into pSJ8; also called FL ScoMcrA; source: E. coli BL21(DE3), purified (HisTrap, TEV cleavage, heparin, Source 15Q, Superdex 200)
stoichiometry N [10]: 2

B2: SBD-SRA domains of ScoMcrA (residues 91-442) (domain or fragment, Streptomyces coelicolor, UniProt Q9L0M9 91-442, looked up)
chain: REAPKTFHRRVGDVRPARRAMGPALHRPVLLLWAIGQAVARAPRLQPWSTTRDAVAPLMEKYGQVEDGVDGVRYPFWALVRDDLWCVEQAEELTLTSRGRRPTLESLNAVDPSAGLREDDYNLLRSQPEAAASAAAGLIARYFHLLPAGLLEDFGLHELLAGRWPDALRPLLGETFKDRDAIWRAYGGQKMAGIGCLADGILSAFSDDKGPYADGRIPDTTWIAYVGDGLSGDQKLTDGNELMAEHQAVGRALRYWHKPFQGQWSFETWAVIVQRRLRWGLGEDKLPRREFLWVLAPVPSPERETWPPEVLEALEADTGELHDDTGDYRPSDLALTPGAPDGTESDDEAYRR
notes: ScoMcrA (ScoA3McrA), Streptomyces coelicolor, SBD-SRA domains, residues 91-442; Crystallised in complex with a 10 bp Rp PT-DNA; the dimer is formed by a crystallographic two-fold axis; also called ScoMcrA-SBD-SRA; source: E. coli BL21(DE3), purified (HisTrap, TEV cleavage, heparin, Source 15Q, Superdex 200)
stoichiometry N [11]: 2

B3: GGCC10 Rp (dsDNA)
DNA 1: CCCGGCCGGG
DNA 2: CCCGGCCGGG
modifications: Rp phosphorothioate between G4 and G5, both strands
binding result (ScoMcrA-SBD-SRA): binds

B4: GGCC8 Rp (dsDNA)
DNA 1: CCGGCCGG
DNA 2: CCGGCCGG
modifications: Rp phosphorothioate between G3 and G4, both strands
binding result (ScoMcrA-SBD [12]): binds

B5: hemi-PT-DNA (S10hemi-S/U10hemi-A) (dsDNA)
DNA 1: CCCGGCCGCC
DNA 2: GGCGGCCGGG
modifications: Rp phosphorothioate between G4 and G5 of strand 1 only
binding result (ScoMcrA FL): binds | binding result (ScoMcrA-SBD [13]): binds

Source: article PMC6224610, “Structural basis for the recognition of sulfur in phosphorothioated DNA” (Nature Communications, 2018)
